Experimental findings from paper PMC5383425, “Differential CLE peptide perception by plant receptors implicated from structural and functional analyses of TDIF-TDR interactions” (PLoS ONE, 2017) are described below.

First the molecules themselves.
B1: Tracheary Element Differentiation Inhibitory Factor (TDIF) peptide [modified: hydroxyproline at 4 and 7; hydroxyproline at 4 and 7] [Arabidopsis thaliana] / extracellular domain of A. thaliana TDR (residues 30-642) … (parent)
chain 1: HEVPSGPNPISN
chain 2: LKFSPQLLSLLSLKTSLSGPPSAFQDWKVPVNGQNDAVWCSWSGVVCDNVTAQVISLDLSHRNLSGRIPIQIRYLSSLLYLNLSGNSLEGSFPTSIFDLTKLTTLDISRNSFDSSFPPGISKLKFLKVFNAFSNNFEGLLPSDVSRLRFLEELNFGGSYFEGEIPAAYGGLQRLKFIHLAGNVLGGKLPPRLGLLTELQHMEIGYNHFNGNIPSEFALLSNLKYFDVSNCSLSGSLPQELGNLSNLETLFLFQNGFTGEIPESYSNLKSLKLLDFSSNQLSGSIPSGFSTLKNLTWLSLISNNLSGEVPEGIGELPELTTLFLWNNNFTGVLPHKLGSNGKLETMDVSNNSFTGTIPSSLCHGNKLYKLILFSNMFEGELPKSLTRCESLWRFRSQNNRLNGTIPIGFGSLRNLTFVDLSNNRFTDQIPADFATAPVLQYLNLSTNFFHRKLPENIWKAPNLQIFSASFSNLIGEIPNYVGCKSFYRIELQGNSLNGTIPWDIGHCEKLLCLNLSQNHLNGIIPWEISTLPSIADVDLSHNLLTGTIPSDFGSSKTITTFNVSYNQLIGPIPSGSFAHLNPSFFSSNEGLCGDLVGKPCNSDRFNAGNADIDG

The first test covers variants of B1. Nature of the test: ITC. The following applies: with extracellular domain of A. thaliana TDR (residues 30-642) [modified: N-glycosylated at N111, N356, N378, N471 and N525 (one GlcNAc visible on each in the struct); parent: 103 nM.
In the case of chain 1 H1A E2A V3A, the Kd is 252000 nM.

With chain 1 N12A, the Kd was 4700 nM.

As to chain 1 E2A, the Kd amounted to 327 nM.

Take chain 1 E2R: the Kd came to 543 nM.

Turning to chain 1 N8A, the Kd is 308 nM.

On to chain 1 H1A, for which the Kd turned out to be 11800 nM.

For chain 1 H1R, the dissociation constant Kd amounted to 329 nM.

Turning to chain 1 I10A, the dissociation constant (Kd) was 641 nM.

Consider chain 1 G6A, for which the Kd was 1440 nM.

On to chain 1 G6T, for which the Kd turned out to be 2080 nM.

chain 1 V3A: the Kd amounted to 1400 nM.

The test is the same for the next values; noted with them: with extracellular domain of A. thaliana TDR (residues 30-642) [modified: N-glycosylated at N111, N356, N378, N471 and N525 (one GlcNAc visible on each in the struct); parent: 1.
As to chain 1 H1A E2A V3A, the ratio to parent was determined as 2450.

For chain 1 N12A, the ratio to parent was 45.6.

In the case of chain 1 I10A, the ratio to parent was found to be 6.2.

The same test, now with this note: with Tracheary Element Differentiation Inhibitory Factor (TDIF) peptide [modified: hydroxyproline at 4 and 7, parent: 103 nM.
With chain 2 R109A F132A S133A S158A Y159A, the Kd turned out to be 3240 nM.

As to chain 2 F250A F252A, the Kd was 887 nM.

Take chain 2 W324A: the Kd was 862 nM.

As to chain 2 F250A, the dissociation constant Kd was 307 nM.

For the variant chain 2 S276A, the Kd stood at 455 nM.

Turning to chain 2 R392A R394A, the Kd amounted to 306 nM.

As to chain 2 Y205A, the Kd stood at 1650 nM.

As for chain 2 F252A, the Kd turned out to be 787 nM.

Still in this test, the particulars now being: with Tracheary Element Differentiation Inhibitory Factor (TDIF) peptide [modified: hydroxyproline at 4 and 7, parent: 1.
Consider chain 2 Y205A, for which the ratio to parent was 16.

Consider chain 2 F252A, for which the ratio to parent came out at 7.6.

Usually Kd stands for the free concentration of one partner at which half of the binding sites on the other are occupied at equilibrium, for simple one-to-one binding.
